Results from patent publication US20230258640.

Target: T1, TCPP-labelled peptide cleavage sequence for MMP-1 (GAGVPMS-MRGGAG) tethered to carboxygraphene-polyethylenimine
T1 chain: GAGVPMSMRGGAG

B1: Matrix-Metalloproteinase-1 (protein)
chain: FVLTEGNPRWEQTHLTYRIENYTPDLPRADVDHAIEKAFQLWSNVTPLTFTKVSEGQADIMISFVRGDHRDNSPFDGPGGNLAHAFQPGPGIGGDAHFDEDERWTNNFREYNLHRVAAHELGHSLGLSHSTDIGALMYPSYTFSGDVQLAQDDIDGIQAIYGRSQNPVQPIGPQTPKACDSKLTFDAITTIRGEVMFFKDRFYMRTNPFYPEVELNFISVFWPQLPNGLEAAYEFADRDEVRFFKGNKYWAVQGQNVLHGYPKDIYSSFGFPRTVKHIDAALSEENTGKTYFFVANKYWRYDEYKRSMDPGYPKMIAHDFPGIGHKVDAVFMKDGFFYFFHGTRQYKFDPKTKRILTLQKANSWFNCRKN
  estimated limit of detection (LOD): femtomolar protease activities can be detected
  fluorescence signal of released TCPP after 60 min incubation at 37 C: the intensity of the detected signal is proportional to concentration of enzyme
